Laboratory results published in PMC6372160, “Biophysical and structural characterization of a zinc-responsive repressor of the MarR superfamily” (PLoS ONE, 2019).

Assays:
[1] = target: the molecule itself; experiment: SEC-MALS; 50 ul of fully purified protein at approximately 1-4 mg/ml on a KW-803 column (Shodex), 0.5 ml/min, supplemented with 1 uM ZnSO4 (untreated protein)
[2] = target: the molecule itself; experiment: SEC; gel filtration at the end of purification, 20 mM Tris-HCl (pH 7.0), 200 mM NaCl, 100 uM ZnSO4; data not shown

B1: ZitR protein of Lactococcus lactis subspecies cremoris strain MG1363, untagged recombinant (S2A, A4R, D8E) form (natural protein, UniProt A2RNS2 1-145, looked up)
chain: MALRNQIEQFLGAIMQFAENKHEILLGECESNVKLTSTQEHILMILAAEVSTNARIAEQLKISPAAVTKALKKLQEQELIKSSRATNDERVVLWSLTEKAIPVAKEHAAHHEKTLSTYQELGDKFTDEEQKVISQFLSVLTEEFR
notes: A minor tetrameric form was also seen at the end of the purification; also called ZitRMG; holo-ZitRMG
stoichiometry N [1]: 2 | stoichiometry N [2]: 4
